Data on one molecule can be found in publication PMC4694755 (Molecular Biology of the Cell, 2016).

The assay concerns the target Mouse importin β (mouse, UniProt P70168 1-876). Description: SPR. In general terms: Surface plasmon resonance follows binding to a sensor surface in real time, without labels.

Chain of Mouse importin β (P70168 whole entry): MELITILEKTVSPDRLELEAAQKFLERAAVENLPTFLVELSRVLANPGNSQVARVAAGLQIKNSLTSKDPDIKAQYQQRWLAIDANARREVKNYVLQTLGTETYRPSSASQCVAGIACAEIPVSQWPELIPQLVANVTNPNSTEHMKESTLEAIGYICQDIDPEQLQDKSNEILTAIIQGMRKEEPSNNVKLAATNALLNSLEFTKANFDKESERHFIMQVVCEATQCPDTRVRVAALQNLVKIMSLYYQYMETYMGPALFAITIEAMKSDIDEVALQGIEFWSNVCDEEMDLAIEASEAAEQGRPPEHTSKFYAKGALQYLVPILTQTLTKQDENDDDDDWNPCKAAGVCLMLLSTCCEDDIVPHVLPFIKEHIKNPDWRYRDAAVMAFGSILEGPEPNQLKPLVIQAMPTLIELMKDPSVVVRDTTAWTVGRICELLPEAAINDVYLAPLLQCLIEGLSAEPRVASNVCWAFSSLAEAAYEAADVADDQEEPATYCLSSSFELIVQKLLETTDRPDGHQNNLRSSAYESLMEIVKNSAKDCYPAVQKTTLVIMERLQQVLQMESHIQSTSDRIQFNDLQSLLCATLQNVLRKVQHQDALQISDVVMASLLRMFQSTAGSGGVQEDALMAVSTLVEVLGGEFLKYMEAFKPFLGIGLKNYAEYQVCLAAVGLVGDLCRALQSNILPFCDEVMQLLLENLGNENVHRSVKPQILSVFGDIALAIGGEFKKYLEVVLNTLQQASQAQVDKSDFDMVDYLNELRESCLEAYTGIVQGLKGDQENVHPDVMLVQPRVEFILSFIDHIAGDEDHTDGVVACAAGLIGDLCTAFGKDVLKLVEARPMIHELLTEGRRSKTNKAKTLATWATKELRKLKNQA

B1: importin β–binding domain of rat importin α (IBB, amino acids 1–66) (domain or fragment)
chain: not shown
A word on the koff: it is a measure of how fast the partners let go of each other. Read a low koff as a long-lived complex. Broadly, the kon is a measure of how fast the partners come together. A higher kon goes with faster complex formation. As for B1, the koff amounted to 0.00132 s⁻¹ and the association rate constant (kon) is 99400 M⁻¹ s⁻¹.
